Assay results reported in PMC4649674, “Structural insights into HetR−PatS interaction involved in cyanobacterial pattern formation” (Scientific Reports, 2015).

Tests used:
[1] = target: PatS5 (Nostoc sp. PCC 7120); conditions: cited from earlier work
[2] = target: PatS6 (Nostoc sp. PCC 7120); conditions: cited from earlier work
HetR mutant E253A = target: T1, HetR mutant E253A (Nostoc sp., UniProt P27709, E253A); test: ITC binding of PatS6 to HetR mutant E253A; parameters: species or system Anabaena sp. PCC 7120; conditions: 25 °C, 1 M NaCl, 5% (v/v) glycerol, 10 mM Tris-Cl, pH 7.8, protein 50 μM, PatS6 750 μM
T1 construct: 15 times (150 or 750 μM) to that of the full-length protein or 40 times (2 mM) to that of HetRHood; six-histidine tag (N); made in house; host or cells: Escherichia coli Rosetta (DE3)
T1 sequence (P27709 whole entry E253A): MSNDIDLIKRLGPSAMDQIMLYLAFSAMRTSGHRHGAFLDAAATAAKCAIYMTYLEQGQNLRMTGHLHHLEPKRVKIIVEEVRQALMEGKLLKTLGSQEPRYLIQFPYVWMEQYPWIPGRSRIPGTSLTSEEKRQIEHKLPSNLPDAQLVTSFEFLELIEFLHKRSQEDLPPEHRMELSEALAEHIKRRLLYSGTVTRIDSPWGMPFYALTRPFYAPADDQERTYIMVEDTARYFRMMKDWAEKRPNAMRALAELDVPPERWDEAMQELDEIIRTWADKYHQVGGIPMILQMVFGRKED
Procedure: (§1) The selenium-methionine-labeled HetR (SeMet HetR) was expressed in E. coli strain B834 (DE3) (Novagen, Madison). Transformed cells were first cultured in 2 × YT medium at 37 °C overnight, then harvested and washed twice with the M9 medium. Then the cells were cultured in SeMet medium (M9 medium with 50 mg/l SeMet and other essential amino acids at 50 mg/l) to an OD600 nm of approximately 1.0. The following steps in protein expression and purification were the same as those for the native protein. Site-directed mutagenesis was performed using the QuickChange site-directed mutagenesis kit (Stratagene, La Jolla) with the plasmid encoding the wild-type HetR as the template. The mutant protein was expressed, purified and stored in the same manner as the wild-type protein.
(§2) The related Kd values are
(§3) calculated and shown above the figures. ND stands for “not detectable”.

[3] = target: T2, HetR double mutant D270A/D278A (Nostoc sp., UniProt P27709, D270A/D278A); test: ITC binding of PatS6 to HetR double mutant D270A/D278A; parameters: species or system Anabaena sp. PCC 7120; conditions: 25 °C, 1 M NaCl, 5% (v/v) glycerol, 10 mM Tris-Cl, pH 7.8, protein 50 μM, PatS6 750 μM
T2 construct: 15 times (150 or 750 μM) to that of the full-length protein or 40 times (2 mM) to that of HetRHood; six-histidine tag (N); made in house; host or cells: Escherichia coli Rosetta (DE3)
T2 sequence (P27709 whole entry D270A/D278A): as the sequence (P27709 whole entry E253A) above, with A253E, D270A, D278A counted along it
Procedure: as §1, §2, §3

[4] = system: E253D mutant strain (hetR); parameters: method as in PMID 21942265; conditions: in vivo; cited from earlier work
HetR = conditions: cited from earlier work
Excerpt: Heterocyst pattern was first speculated to be controlled by a pentapeptide RGSGR (designated as PatS5), a motif which was identified first as the C-terminal five residues of PatS[16], and later within a putative ketoacyl reductase HetN[17].

[5] = target: T3, HetR (wild type, full-length) from Anabaena sp. PCC 7120 (Anabaena sp. PCC 7120, UniProt P27709 1-299); test: ITC; iTC200, 25 °C; protein in the sample cell (10 or 50 μM), PatS6 in the syringe (150 or 750 μM; 2 mM for HetR_(Hood)); 1 M NaCl, 5% (v/v) glycerol, 10 mM Tris-Cl, pH 7.8; conditions: both partners purified
T3 construct: HetR, transcription factor of Anabaena sp; PCC 7120; DBD 1-98, flap domain 99-216, hood domain 217-299; Intertwined homodimer in the crystal with 21-bp hetP promoter DNA; A SeMet-labelled form (E. coli B834) was used for phasing only; also called wild-type HetR; full-length HetR; source: E. coli Rosetta (DE3), purified (Ni-NTA, Superdex 75)
T3 sequence (looked up): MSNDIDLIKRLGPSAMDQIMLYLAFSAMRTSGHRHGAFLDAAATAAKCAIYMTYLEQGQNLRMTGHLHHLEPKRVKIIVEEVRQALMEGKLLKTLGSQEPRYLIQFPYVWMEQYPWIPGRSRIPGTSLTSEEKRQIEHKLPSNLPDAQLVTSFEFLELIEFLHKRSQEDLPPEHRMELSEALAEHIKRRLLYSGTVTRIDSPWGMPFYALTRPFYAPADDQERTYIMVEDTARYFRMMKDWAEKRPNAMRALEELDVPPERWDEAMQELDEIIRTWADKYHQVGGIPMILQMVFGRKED

HetR E254A = target: T4, HetR E254A (Anabaena sp. PCC 7120, UniProt P27709 1-299, E254A); test: as above; conditions: both partners purified
T4 construct: HetR of Anabaena sp; PCC 7120, point mutant made from the plasmid of wild-type HetR; source: E. coli, purified in the same manner as the wild-type protein
T4 sequence (looked up): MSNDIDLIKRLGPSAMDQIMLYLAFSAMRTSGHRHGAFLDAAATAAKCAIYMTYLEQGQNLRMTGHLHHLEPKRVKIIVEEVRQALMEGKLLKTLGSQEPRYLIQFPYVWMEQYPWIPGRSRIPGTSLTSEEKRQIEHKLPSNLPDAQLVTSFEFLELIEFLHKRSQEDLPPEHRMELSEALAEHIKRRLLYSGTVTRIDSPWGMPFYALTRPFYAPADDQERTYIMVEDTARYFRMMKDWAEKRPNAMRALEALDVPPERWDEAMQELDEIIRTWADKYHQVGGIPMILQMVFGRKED

HetR D278A = target: T5, HetR D278A (Anabaena sp. PCC 7120, UniProt P27709 1-299, D278A); test: as above; conditions: both partners purified
T5 construct: HetR of Anabaena sp; PCC 7120, point mutant made from the plasmid of wild-type HetR; source: E. coli, purified in the same manner as the wild-type protein
T5 sequence (looked up): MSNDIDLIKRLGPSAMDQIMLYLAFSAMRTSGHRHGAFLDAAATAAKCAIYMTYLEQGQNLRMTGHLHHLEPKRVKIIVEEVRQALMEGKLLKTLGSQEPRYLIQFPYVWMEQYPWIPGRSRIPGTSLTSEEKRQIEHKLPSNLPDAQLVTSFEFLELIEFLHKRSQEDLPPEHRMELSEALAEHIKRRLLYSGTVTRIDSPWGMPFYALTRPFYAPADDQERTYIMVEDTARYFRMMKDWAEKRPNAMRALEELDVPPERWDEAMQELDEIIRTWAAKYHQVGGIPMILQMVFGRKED

HetR D270A = target: T6, HetR D270A (Anabaena sp. PCC 7120, UniProt P27709 1-299, D270A); test: as above; conditions: both partners purified
T6 construct: HetR of Anabaena sp; PCC 7120, point mutant made from the plasmid of wild-type HetR; source: E. coli, purified in the same manner as the wild-type protein
T6 sequence (looked up): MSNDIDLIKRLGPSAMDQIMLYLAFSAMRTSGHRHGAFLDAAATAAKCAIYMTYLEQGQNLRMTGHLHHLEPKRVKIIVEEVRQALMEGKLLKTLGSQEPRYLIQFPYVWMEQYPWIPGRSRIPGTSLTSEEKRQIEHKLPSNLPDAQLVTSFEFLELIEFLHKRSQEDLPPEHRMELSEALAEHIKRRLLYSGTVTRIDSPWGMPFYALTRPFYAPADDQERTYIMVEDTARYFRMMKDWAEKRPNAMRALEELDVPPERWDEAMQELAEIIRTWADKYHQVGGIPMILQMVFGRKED

HetR D256A = target: T7, HetR D256A (Anabaena sp. PCC 7120, UniProt P27709 1-299, D256A); test: as above; conditions: both partners purified
T7 construct: HetR of Anabaena sp; PCC 7120, point mutant made from the plasmid of wild-type HetR; source: E. coli, purified in the same manner as the wild-type protein
T7 sequence (looked up): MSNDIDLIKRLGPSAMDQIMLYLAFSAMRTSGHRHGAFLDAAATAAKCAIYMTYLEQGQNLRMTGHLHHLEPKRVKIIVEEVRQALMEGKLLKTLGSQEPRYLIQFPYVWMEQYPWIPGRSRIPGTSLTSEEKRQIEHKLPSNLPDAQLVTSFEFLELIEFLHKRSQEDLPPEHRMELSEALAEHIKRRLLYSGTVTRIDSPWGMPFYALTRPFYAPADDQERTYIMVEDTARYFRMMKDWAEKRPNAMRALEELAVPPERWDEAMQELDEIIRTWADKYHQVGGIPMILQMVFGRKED

HetR R223W = target: T8, HetR R223W (Anabaena sp. PCC 7120, UniProt P27709 1-299, R223W); test: as above; conditions: both partners purified
T8 construct: HetR of Anabaena sp; PCC 7120, point mutant made from the plasmid of wild-type HetR; source: E. coli, purified in the same manner as the wild-type protein
T8 sequence (looked up): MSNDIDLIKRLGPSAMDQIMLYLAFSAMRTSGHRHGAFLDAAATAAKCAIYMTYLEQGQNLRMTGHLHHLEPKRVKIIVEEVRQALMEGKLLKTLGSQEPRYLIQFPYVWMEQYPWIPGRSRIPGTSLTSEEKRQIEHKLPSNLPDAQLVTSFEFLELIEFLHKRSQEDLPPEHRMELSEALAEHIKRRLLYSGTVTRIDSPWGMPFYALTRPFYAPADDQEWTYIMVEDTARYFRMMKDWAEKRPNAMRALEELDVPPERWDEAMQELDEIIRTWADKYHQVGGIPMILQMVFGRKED

[6] = target: T9, HetR hood domain (Asp219-Asp299), HetR_(Hood) (Anabaena sp. PCC 7120, UniProt P27709 219-299); test: as above; conditions: both partners purified
T9 construct: HetR of Anabaena sp; PCC 7120, individual hood domain, residues Asp219-Asp299; Entwined dimer in the crystal; four molecules (two dimers) in the asymmetric unit; source: E. coli Rosetta (DE3), purified (Ni-NTA, Superdex 75)
T9 sequence (looked up): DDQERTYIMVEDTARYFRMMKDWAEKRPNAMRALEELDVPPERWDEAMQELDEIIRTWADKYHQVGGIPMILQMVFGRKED

## HetR (from UniProt P27709)
[1]
  Kd: 227 nM
[2]
  Kd: 7 nM

## N=C(N)NCCC[C@H](NC(=O)CNC(=O)[C@H](CO)NC(=O)CNC(=O)[C@H](CCCNC(=N)N)NC(=O)[C@@H](N)CCC(=O)O)C(=O)O [PatS6]
HetR mutant E253A
  PatS6-binding affinity towards E253A: totally abolished the PatS6-binding affinity
[3]
  binding affinity towards D270A/D278A: no detectable binding affinity

## RGSGR [PatS5, pentapeptide RGSGR, C-terminal five residues of PatS]
[4]
  sensitivity of E253D mutant strain to PatS5: drastically reduced sensitivity to PatS5
HetR
  effect of PatS5 binding on DNA-binding capacity of HetR: may abolish the DNA-binding capacity of HetR
HetR; in vitro binding assays
  molecules bound per HetR homodimer: two

B1: PatS6 (PatS-derived hexapeptide ERGSGR) (peptide)
peptide: ERGSGR
notes: PatS-derived hexapeptide; RGSGR is the C-terminal five residues of PatS of Anabaena sp; PCC 7120; source: synthetic peptide (GL Biochem, Shanghai)
[5]
  Kd: 12 nM
HetR E254A
  Kd: 91 nM
HetR D278A
  Kd: 1630 nM
HetR D270A
  Kd: 2250 nM
HetR D256A
  Kd: 427 nM
HetR R223W
  Kd: 2350 nM
[6]
  Kd: 24000 nM
